The results in this text go back to PMC4147282, “Aromatic Amino Acid Mutagenesis at the Substrate Binding Pocket of Yarrowia lipolytica Lipase Lip2 Affects Its Activity and Thermostability” (The Scientific World Journal, 2014).

As usually defined, the kcat is the number of substrate molecules converted per active site and unit of time at saturation.

Substrate in this data set: CCCCCCCCCCCCCCCC(=O)Oc1ccc([N+](=O)[O-])cc1
Kind of data set: purified protein. Conditions: 50 mmol PBS, pH 8.0, 40°C, substrate 0.2–1 mmol. Type of data set: biochemical, Yarrowia lipolytica.

B1: YLLip2 (lipase2 from Yarrowia lipolytica) (Yarrowia lipolytica) (protein)
chain: VYTSTETSHIDQESYNFFEKYARLANIGYCVGPGTKIFKPFNCGLQCAHFPNVELIEEFHDPRLIFDVSGYLAVDHASKQIYLVIRGTHSLEDVITDIRIMQAPLTNFDLAANISSTATCDDCLVHNGFIQSYNNTYNQIGPKLDSVIEQYPDYQIAVTGHSLGGAAALLFGINLKVNGHDPLVVTLGQPIVGNAGFANWVDKLFFGQENPDVSKVSKDRKLYRITHRGDIVPQVPFWDGYQHCSGEVFIDWPLIHPPLSNVVMCQGQSNKQCSAGNTLLQQVNVIGNHLQYFVTEGVCGI
notes: mature YLLip2, own prepro replaced by XPR2pre secretion signal, N-terminal 6xHis tag kept (HHHHHH-VYTST...); secreted from Y. lipolytica JMY1212 (plasmid pYL-H6-mYLLip2); IMAC purified; approx. 38 kDa on SDS-PAGE
As for B1, the kcat worked out at 157 ± 1 s⁻¹.
